How the values were obtained:
Assay in all cases: Western blot, E. coli lysate, reducing gel
[1] = target: T1, CDH3 protein Fragment 5 (positions 462 to 654 of SEQ ID NO: 38) (human, UniProt P22223 462-654)
T1 construct: Expressed in E. coli Rosetta 2; the lysate was run on a reducing gel and blotted; not shown: N-terminal fusion part supplied by the vector pCold TF (His tag, trigger factor, linker to the KpnI site)
Procedure: (§1) The above-described Escherichia coli lysate, in which each of the above-mentioned CDH3 protein fragments had been expressed, was charged to 5%-20% gradient gel (Bio-Rad) under reductive conditions, followed by performing electrophoresis. Thereafter, using a blotting device (Bio-Rad), the resultant was transferred on Immobilon P membrane (Millipore). The transfer membrane was lightly washed with TBS-T (0.05% Tween 20, TBS), and it was then shaken in […] BSA-containing TBS for 1 hour. […] The obtained mixture was shaken for 1 hour. Thereafter, the reaction product was washed with TBS-T, and a HRP-anti-mouse IgG antibody (GE Healthcare Biosciences) diluted with 10% Block Ace-containing TBS-T was added thereto, followed by shaking the obtained mixture for 1 hour. Subsequently, the reaction product was washed with TBS-T. Using ECL-Plus (GE Healthcare Biosciences), color development was detected with X-ray film RX-u (Fujifilm Corporation) in accordance with the instructions provided by the manufacturer.

[2] = target: T2, CDH3 protein Fragment 3 (positions 237 to 461 of SEQ ID NO: 38) (human, UniProt P22223 237-461)
T2 construct: Expressed in E. coli Rosetta 2; the lysate was run on a reducing gel and blotted; not shown: N-terminal fusion part supplied by the vector pCold TF (His tag, trigger factor, linker to the KpnI site)
T2 sequence (P22223 237-461 limits assumed): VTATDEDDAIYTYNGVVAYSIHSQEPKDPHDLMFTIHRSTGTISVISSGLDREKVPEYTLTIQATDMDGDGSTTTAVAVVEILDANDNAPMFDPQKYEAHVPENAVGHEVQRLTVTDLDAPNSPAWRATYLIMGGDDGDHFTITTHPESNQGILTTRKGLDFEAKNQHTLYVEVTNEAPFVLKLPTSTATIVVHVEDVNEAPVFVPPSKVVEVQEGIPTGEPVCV
Procedure: as §1

[3] = target: T3, CDH3 protein Fragment 2 (positions 132 to 348 of SEQ ID NO: 38) (human, UniProt P22223 132-348)
T3 construct: Expressed in E. coli Rosetta 2; the lysate was run on a reducing gel and blotted; not shown: N-terminal fusion part supplied by the vector pCold TF (His tag, trigger factor, linker to the KpnI site)
T3 sequence (P22223 132-348 limits assumed): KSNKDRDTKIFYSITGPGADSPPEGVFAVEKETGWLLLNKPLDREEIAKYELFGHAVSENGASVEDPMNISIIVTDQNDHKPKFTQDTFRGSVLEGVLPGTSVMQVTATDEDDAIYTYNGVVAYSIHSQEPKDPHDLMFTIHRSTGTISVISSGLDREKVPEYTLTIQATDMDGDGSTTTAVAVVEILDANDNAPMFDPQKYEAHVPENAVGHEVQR
Procedure: as §1

[4] = target: T4, CDH3 protein Fragment 4 (positions 349 to 550 of SEQ ID NO: 38) (human, UniProt P22223 349-550)
T4 construct: Expressed in E. coli Rosetta 2; the lysate was run on a reducing gel and blotted; not shown: N-terminal fusion part supplied by the vector pCold TF (His tag, trigger factor, linker to the KpnI site)
T4 sequence (P22223 349-550 limits assumed): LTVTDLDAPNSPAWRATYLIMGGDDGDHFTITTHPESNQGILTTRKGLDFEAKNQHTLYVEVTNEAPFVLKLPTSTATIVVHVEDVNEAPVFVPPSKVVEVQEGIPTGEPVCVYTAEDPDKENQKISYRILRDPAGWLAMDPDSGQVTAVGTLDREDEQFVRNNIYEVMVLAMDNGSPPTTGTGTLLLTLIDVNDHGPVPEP
Procedure: as §1

T1 sequence (P22223 462-654 limits assumed): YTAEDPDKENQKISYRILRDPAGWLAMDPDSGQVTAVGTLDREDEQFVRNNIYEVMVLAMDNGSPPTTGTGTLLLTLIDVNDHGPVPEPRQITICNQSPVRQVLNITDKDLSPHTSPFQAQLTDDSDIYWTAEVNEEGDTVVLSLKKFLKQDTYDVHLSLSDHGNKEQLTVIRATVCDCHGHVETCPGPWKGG

binding result [1]: no binding
binding result [2]: no binding
binding result [3]: no binding
binding result [4]: no binding
B1: mouse antibody PPAT-057-17 (antibody, V domains shown)
VH: QVKLEESGPVLVAPSQSLSITCTVSGFSLTSYGVHWIRHPPGKGLEWLGVIWAGGNTIYNSALMSRLNISKDNSKSQVFLKMNSLQSDDSAMYYCAKPHYGDYAGFYALDHWGQGTSVTVSS
VL: DVQITQSPSYLAASPGETININCRASKRISKYLAWYQEKPGKTNRLLIYSGSTLQSGIPSRFSGSGSGTDFTLTISSLEPEDFAMYYCQQHNEYPWTFGGGTKLEIK
notes: Mouse monoclonal IgG from a hybridoma; kappa L chain primers were used

— patent US20140221620A1 (PERSEUS PROTEOMICS, published 2014)
